This is an account of results in article PMC7526519.

Holding throughout (test): SPR
For orientation: Surface plasmon resonance follows binding to a sensor surface in real time, without labels.

Assay [1] concerns the target alpaca ACE2 ectodomain fused with mouse Fc (alpaca).
The target of assay [2] is Malayan pangolin ACE2 ectodomain fused with mouse Fc (Malayan pangolin).
Assay [3] has as its target little brown bat ACE2 ectodomain fused with mouse Fc (little brown bat).

For “SARS-CoV-2 receptor binding domain (RBD), His-tagged (from UniProt P0DTC2 319-541) (domain or fragment)”, in assay [1], the Kd (commonly a measure of binding affinity in units of concentration) was determined as 16.5 µM.

“SARS-CoV receptor binding domain (RBD), His-tagged (from UniProt P59594 306-527) (domain or fragment)”: the values for the fold lower affinity than SARS-CoV-2 RBD to the same ACE2 in assay [2] and in assay [3] were 4 fold and 40 fold, respectively.
